From publication PMC7113836

Target: HBcS-NadA-CFHbp (Hepatitis B Virus | Neisseria meningitidis strain MC58) (UniProt Q9JXV4)
Test: cryo-EM structure; single particle cryoelectron microscopy of purified HBcS-NadA-CFHbp VLPs; 3.4 Å map; HBc T = 4 crystal structure fitted and refined; method details in Supplementary Materials

HBcS-NadA-CFHbp (from UniProt Q9JXV4 157-274)
stoichiometry N: 240 copies
